Biological target: recombinant human activated Factor VII (FVIIa) (human) (UniProt P08709)
Experiment: cell-based or functional assay

recombinant human activated Factor VII (FVIIa) (human), sequence (P08709 61-212, chain 1 of 2): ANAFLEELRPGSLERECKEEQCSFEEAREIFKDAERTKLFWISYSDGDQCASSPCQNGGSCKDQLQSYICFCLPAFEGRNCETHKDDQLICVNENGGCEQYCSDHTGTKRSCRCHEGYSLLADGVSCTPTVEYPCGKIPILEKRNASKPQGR
recombinant human activated Factor VII (FVIIa) (human), sequence (P08709 213-466, chain 2 of 2): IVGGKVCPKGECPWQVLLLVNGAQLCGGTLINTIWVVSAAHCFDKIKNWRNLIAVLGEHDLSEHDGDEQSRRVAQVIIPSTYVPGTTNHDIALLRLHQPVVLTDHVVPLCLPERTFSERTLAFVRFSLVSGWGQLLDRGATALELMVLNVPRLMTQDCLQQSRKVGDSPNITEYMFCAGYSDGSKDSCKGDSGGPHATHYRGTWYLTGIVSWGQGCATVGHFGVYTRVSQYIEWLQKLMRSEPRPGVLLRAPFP

| apparent second order rate constant of inhibition of FVIIa by alpha-2-macroglobulin, no antibody | apparent second order rate constant (kinh) of inhibition of free FVIIa by antithrombin | Substance |
| --- | --- | --- |
| 475 M⁻¹ s⁻¹ | – | human plasma-derived alpha-2-macroglobulin (from UniProt P01023 24-1474) |
| – | 124 M⁻¹ s⁻¹ | human plasma-derived antithrombin (AT) (from UniProt P01008 33-464) |

From US20220064329A1
